From US20130149306A1, “Antagonists of Sema3E/PlexinD1 interaction as anti-cancer agents” (NETRIS PHARMA, priority 2010, published 2013)

What was measured:
[1] = system: HEK 293T cells transfected with hPlexinD1; experiment: PlexinD1-induced cell death of transfected HEK 293T cells; format: cell-based, human; conditions: for Effect of caspase inhibitor on the death effect of PlexinD1: 10 μM, trypan blue exclusion, cleaved Caspase-3 positive cells; for Effect of co-transfected semaphorin vector on PlexinD1-induced cell death: co-transfection with hPlexinD1
Protocol: FIGS. 28-29: HEK 293T cells transfected with an expression control vector or hPlexinD1 were cultured in absence or presence of different caspase inhibitors at 10 μM (caspase-3 (z-DEVD-fmk) and capspase-9 (z-LEHD-fmk), caspase-8 (z-IETD-fmk)). Cell death was measured by trypan blue exclusion-assay (28) or by quantification of the percentage of cleaved Caspase-3 positive cells (29). Activation of caspase-9 and caspase-3 is required for PlexinD1-mediated cell death.
FIG. 30: HEK 293T cells transfected with expression vectors for hPlexinD1, hPlexinD1-RA or a control vector were cultured in the absence or presence of different concentration of Sema3E (10 to 100 ng/ml).
FIG. 31: HEK 293T cells transfected with an expression vector for hPlexinD1 together with expression vector coding for Sema3E, Sema3C or a soluble form of Sema4A.
(§1) Cell death/viability was determined by trypan blue dye exclusion, MTT cell viability assay, calcein assay, and anti-active caspase-3 immunoreactivity. In some experiments, cells were seeded in multiple 24-well plates (5×10^4 cells/well) for 24 h then transfected with different vectors using Lipofectamine Plus (Invitrogen): The different analysis occurred after 48 h (HEK-293T cells) or 72 h (4T1 cells) of serum starvation. In some experiments, cells were cultured in the presence of 10 μM caspase inhibitors: caspase-3 inhibitor II (Z-DEVD-FMK, 264155, VWR), caspase-8 inhibitor II (Z-IETD-FMK, 218759, VWR), and caspase-9 inhibitor II ([…], 218776, VWR).
(§2) For trypan blue exclusion experiments, total cells (adherent and floating) were collected by mechanical detachment and medium collection. Cells were pelleted by slow centrifugation and resuspended in serum-free medium. Trypan blue (0.4%) was added in a ratio of 1:1 to the cell suspension, and the percentage of cell death was measured in a hemacytometer by counting, in a blinded fashion and within a given volume, the number of blue (dead) cells and comparing this number to the total number of cells in this same volume.
(§3) For caspase staining, after immunostaining with anti-active caspase-3 antibody, the percentage of labelled cells was estimated by comparing the number of active caspase-3-stained cells with the total number of cells present on a given surface.

4T1 cells = experiment: Cell death/viability in cultures of 4T1 cells; format: cell-based, mouse
Protocol: as §1, §2, §3
For assessing cell viability using calcein, cells were plated in OptiMEM medium in 96-well black plates (Greiner Bio-one, Courtaboeuf, France). After 3-6 days in culture, live cells were stained with 0.5 μg/ml green calcein-acetoxymethyl ester (Molecular Probes, Eugene, Oreg.) for 40 minutes at 37° C., and counted using a flash cytometer (Trophos, Marseille, France).
We next used an in vitro assay to evaluate whether SD1 is directly capable of triggering death of tumor cells. […] Similarly, 4T1-SD1 cells, which proliferate at the same rate as 4T1-mock cells during the first 24-48 h in culture, show increased death 72 h after plating, possibly as a result of SD1 accumulation in the culture medium (FIG. 14). […] Thus, SD1 triggers cancer cell death in a PlexinD1 dependent manner.

[2] = target: PlexinD1-IC D1471N/D1624N (UniProt Q9Y4D7)
[3] = target: T1, in vitro translated intracellular domain of PlexinD1 (hPlexinD1 aa 1293 to 1925) (UniProt Q9Y4D7)
T1 sequence: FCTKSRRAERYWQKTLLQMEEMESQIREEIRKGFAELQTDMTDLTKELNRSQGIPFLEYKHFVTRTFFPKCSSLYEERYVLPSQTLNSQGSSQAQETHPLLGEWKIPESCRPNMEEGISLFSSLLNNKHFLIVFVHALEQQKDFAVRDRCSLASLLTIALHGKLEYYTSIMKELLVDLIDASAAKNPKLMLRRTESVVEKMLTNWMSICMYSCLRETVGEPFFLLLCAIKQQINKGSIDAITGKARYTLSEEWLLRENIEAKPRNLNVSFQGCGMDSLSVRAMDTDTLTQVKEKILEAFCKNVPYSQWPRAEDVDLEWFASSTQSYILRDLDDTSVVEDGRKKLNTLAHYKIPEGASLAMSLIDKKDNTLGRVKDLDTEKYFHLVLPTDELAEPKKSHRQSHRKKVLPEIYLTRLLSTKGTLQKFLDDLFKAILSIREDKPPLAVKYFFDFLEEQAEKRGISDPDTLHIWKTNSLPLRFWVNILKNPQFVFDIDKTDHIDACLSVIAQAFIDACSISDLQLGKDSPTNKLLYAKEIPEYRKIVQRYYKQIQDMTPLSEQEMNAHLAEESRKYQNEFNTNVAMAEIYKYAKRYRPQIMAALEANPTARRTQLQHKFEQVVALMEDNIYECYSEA

[4] = target: T2, Sema3E (as printed in the displacement assay and as 'exogenous Sema3E' or Sema3E expression vector in the … (Mus musculus (Mouse), UniProt P70275 26-775)); experiment: displacement of Sema3E binding to PlexinD1-expressing HEK293T cells by SD1 in conditioned medium (1-12 nM)
T2 construct: The methods describe production of mouse AP-Sema3E, which may be the one used in the displacement assay; also called Sema3E ligand; not shown: Alkaline phosphatase (AP) fusion partner, and a His tag if the AP-Sema3E-his construct was used
T2 sequence: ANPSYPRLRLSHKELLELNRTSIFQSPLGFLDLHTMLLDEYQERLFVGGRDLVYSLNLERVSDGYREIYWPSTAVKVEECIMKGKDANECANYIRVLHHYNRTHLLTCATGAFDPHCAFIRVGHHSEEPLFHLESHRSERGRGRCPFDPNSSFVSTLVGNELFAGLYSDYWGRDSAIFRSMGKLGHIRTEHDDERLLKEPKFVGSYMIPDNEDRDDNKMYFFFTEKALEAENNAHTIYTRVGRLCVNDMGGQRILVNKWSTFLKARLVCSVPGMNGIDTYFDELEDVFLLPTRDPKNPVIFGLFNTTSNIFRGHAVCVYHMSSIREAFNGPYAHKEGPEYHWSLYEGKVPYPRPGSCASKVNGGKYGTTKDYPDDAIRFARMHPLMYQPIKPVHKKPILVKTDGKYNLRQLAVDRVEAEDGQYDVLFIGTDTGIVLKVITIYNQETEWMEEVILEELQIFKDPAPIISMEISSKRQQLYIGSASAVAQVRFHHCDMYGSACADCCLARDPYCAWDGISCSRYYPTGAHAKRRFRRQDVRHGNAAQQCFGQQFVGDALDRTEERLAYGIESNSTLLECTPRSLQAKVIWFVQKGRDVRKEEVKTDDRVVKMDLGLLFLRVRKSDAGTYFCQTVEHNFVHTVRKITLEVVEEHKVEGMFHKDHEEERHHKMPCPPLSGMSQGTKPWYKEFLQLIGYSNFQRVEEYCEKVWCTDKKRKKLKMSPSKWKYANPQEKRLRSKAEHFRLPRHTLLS

For z-DEVD-fmk [reference compound], the “Effect of caspase inhibitor on the death effect of PlexinD1” value (from here on “Effect of caspase inhibitor”) [1] was “blocked”.

In the case of “shRNA1: small hairpin RNA targeting mouse Sema3E, SEQ ID NO: 26 (CCGGGCTGCTGAAAGTAATCACAATCTCGAGATTGTGATTACTTTCAGCAGCTTTTTG) [reference compound]”, the “Death of 4T1 cells on knockdown of Sema3E” value (4T1 cells; transfection with shRNA to mouse Sema3E) is reported as “induced death”.

For purified active caspase-3, the “in vitro cleavage by active caspase-3 (autoradiography)” value [2] was “Mutation of both aspartic acid residues to asparagine (N) within the intracellular domain of PlexinD1 completely suppressed caspase-3 cleavage” and the “in vitro cleavage by active caspase-3 (autoradiography)” value [3] was “the intracellular domain of PlexinD1 is cleaved by caspase-3, resulting in five protein products that migrate at apparent molecular weight of 16, 24, 30, 37 and 50 kDa”.

With z-IETD-fmk [reference compound] the “Effect of caspase inhibitor” value [1] was “not”.

z-LEHD-fmk [reference compound] was tested, and the “Effect of caspase inhibitor” value [1] was “blocked”.

B1: Sema3C: class 3 semaphorin which does not directly bind to PlexinD1; expressed from vector (protein, UniProt Q99985 21-751, looked up)
Semaphorin-3C: GSSQPQARVYLTFDELRETKTSEYFSLSHHPLDYRILLMDEDQDRIYVGSKDHILSLNINNISQEALSVFWPASTIKVEECKMAGKDPTHGCGNFVRVIQTFNRTHLYVCGSGAFSPVCTYLNRGRRSEDQVFMIDSKCESGKGRCSFNPNVNTVSVMINEELFSGMYIDFMGTDAAIFRSLTKRNAVRTDQHNSKWLSEPMFVDAHVIPDGTDPNDAKVYFFFKEKLTDNNRSTKQIHSMIARICPNDTGGLRSLVNKWTTFLKARLVCSVTDEDGPETHFDELEDVFLLETDNPRTTLVYGIFTTSSSVFKGSAVCVYHLSDIQTVFNGPFAHKEGPNHQLISYQGRIPYPRPGTCPGGAFTPNMRTTKEFPDDVVTFIRNHPLMYNSIYPIHKRPLIVRIGTDYKYTKIAVDRVNAADGRYHVLFLGTDRGTVQKVVVLPTNNSVSGELILEELEVFKNHAPITTMKISSKKQQLYVSSNEGVSQVSLHRCHIYGTACADCCLARDPYCAWDGHSCSRFYPTGKRRSRRQDVRHGNPLTQCRGFNLKAYRNAAEIVQYGVKNNTTFLECAPKSPQASIKWLLQKDKDRRKEVKLNERIIATSQGLLIRSVQGSDQGLYHCIATENSFKQTIAKINFKVLDSEMVAVVTDKWSPWTWASSVRALPFHPKDIMGAFSHSEMQMINQYCKDTRQQHQQGDESQKMRGDYGKLKALINSRKSRNRRNQLPES
For B1, the “Effect of co-transfected semaphorin vector on PlexinD1-induced cell death” value [1] was “no change”.

B2: Sema3E: secreted Semaphorin 3E, ligand of PlexinD1; added as exogenous protein or co-transfected vector (protein)
chain: T2 sequence
With B2 the “Effect of exogenous ligand on PlexinD1-triggered cell death” value ([1]; Sema3E 10 to 100 ng/ml) was “inhibited in a dose dependent manner”, the “Effect of co-transfected semaphorin vector on PlexinD1-induced cell death” value [1] was “saved from cell death” and the “Effect of exogenous Sema3E on SD1-induced death” value (4T1 cells; exogenous Sema3E 100 ng/ml) was “sufficient to rescue cells from death”. The “Effect of exogenous Sema3E on death induced by Sema3E knockdown” value (4T1 cells; exogenous Sema3E 100 ng/ml, shRNA1) was “reversed”.

B3: SD1 (sema domain of mouse PlexinD1, aa 61 to 531, fused in frame with six myc epitope tags) (receptor, UniProt Q3UH93 61-531, looked up, not shown: small tags and cut ends)
chain: TNNFALDGTAGTVYLAAVNRLYQLSSANLSLEAEATVGPVPDSPLCHAPQLPQASCEHPRRLTDNYNKILQLDPGQGLVVACGSIYQGLCQLRRRGNISALAVSFPPAAPTAEPVTVFPSMLNVAANHPNASTVGLVLPPTSGTGGSRLLVGATYTGFGSAFFPRNRSLEDHRFENTPEIAIRSLDARGDLAKLFTFDLNPSDDNILKIKQGAKEQHKLGFVRAFLHPAVPPHSAQPYAYLALNSEARAGDKDSQARSLLARICLPRGAGGDAKKLTESYIQLGLQCAGGAGRGDLYSRLVSVFPAREQFFAVFERPQGAPGARNAPAALCAFRFDDVQAAIRAARTACFVEPAPDVVAVLDSVVQGTGPACESKRNIQLQPEQLDCGAAHLQHPLTILQPLRASPVFRAPGLTAVAVASANNYTAVFLGTATGRLLKISLNESMQVVSRRVLTVAYGEPVHHVMQFDPMD
notes: range 61-531; The construct starts with the Ig k-chain secretion signal peptide, left out here as it is a secretion signal; also called SD1 polypeptide; myc-tagged SD1
In the case of B3, the IC50 [4] is reported as 5.05 nM.
